Tests used:
[1] = molecular target: T1, human TIM-3 protein with hFc tag (hTIM-3-hFc protein) (human, UniProt Q8TDQ0 22-200); assay: ELISA, coated hTIM-3-hFc; antibody 6.6667 nM
T1 construct: also called immunogen 1; human TIM-3 extracellular domain protein; not shown: human IgG Fc fragment (hFc) of the pCpC vector
T1 sequence: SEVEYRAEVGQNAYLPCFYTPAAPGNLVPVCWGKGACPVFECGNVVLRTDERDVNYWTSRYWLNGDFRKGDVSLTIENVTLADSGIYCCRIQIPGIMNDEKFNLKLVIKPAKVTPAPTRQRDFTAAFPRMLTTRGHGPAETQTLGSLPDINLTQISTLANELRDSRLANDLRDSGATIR
From the text: (§1) The amino acid sequence 22-200 of the extracellular domain of the human TIM-3 protein described in the step of Example 1 (as shown in SEQ ID NO. 71 in the sequence listing) was cloned into a pCpC vector having a human IgG Fc fragment (hFc), and transfected into HEK293 cells. The cell culture medium was collected, and purified to obtain the human TIM-3 protein with hFc tag (herein referred to as hTIM-3-hFc protein). The amino acid sequence 22-201 of the extracellular domain of the monkey TIM-3 protein (as shown in SEQ ID NO. 72 in the sequence listing) was cloned into a pCpC vector having a human IgG Fc fragment (hFc), and transfected into HEK293 cells. The cell culture medium was collected, and purified to obtain the monkey TIM-3 protein with hFc tag (herein referred to as cTIM-3-hFc protein). […] The cell culture medium was collected, and purified to obtain the murine TIM-3 protein with hFc tag (herein referred to as mTIM-3-hFc protein). Purified human, monkey, and mouse TIM-3 extracellular domain proteins (hTIM-3-hFc, cTIM-3-hFc, and mTIM-3-hFc) were diluted with PBS to a final concentration of 1.0 μg/ml and then added to a 96-well ELISA plate with 100 μl per well. The plate was sealed with plastic film and incubated overnight at 4° C. The plate was washed 4 times with the plate washing solution (PBS+0.01% Tween20) on the next day, and added with the blocking solution (PBS+0.01% Tween20+1% BSA) and sealed at room temperature for 1-2 hours. The blocking solution was poured out. 50-100 μl of the antibody sample to be tested was added to each well. The plate was incubated at 37° C. for 1-2 hours, and washed 2-3 times with plate washing solution (PBS+0. 01% Tween20). HRP (horseradish peroxidase) labeled secondary antibody was added. The plate was incubated at 37° C. for 1-2 hours, and washed 2-3 times with plate washing solution (PBS+0. 01% Tween20). […] of TMB substrate was added to each well. After incubated at room temperature for 15-30 minutes, the plate was added with […] stop solution (1.0N HCl) to each well. An ELISA plate reader (TiterMax 384plus, Molecular Device) was used to read the A450 nm value.

[2] = molecular target: T2, monkey TIM-3 protein with hFc tag (cTIM-3-hFc protein) (monkey; human); assay: ELISA, coated cTIM-3-hFc; antibody 0.0001 nM
T2 construct: Made in HEK293 cells; also called monkey TIM-3 extracellular domain protein; not shown: human IgG Fc fragment (hFc) of the pCpC vector
T2 chain: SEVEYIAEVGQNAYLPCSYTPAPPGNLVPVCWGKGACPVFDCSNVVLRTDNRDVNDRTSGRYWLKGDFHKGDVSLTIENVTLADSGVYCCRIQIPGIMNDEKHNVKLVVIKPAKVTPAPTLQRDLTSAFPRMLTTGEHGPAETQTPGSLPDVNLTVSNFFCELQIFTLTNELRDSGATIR
From the text: as §1

[3] = molecular target: T3, murine TIM-3 protein with hFc tag (mTIM-3-hFc protein) (mouse; human, UniProt Q8VIM0 29-191); assay: ELISA, coated mTIM-3-hFc; antibody 6.6667 nM
T3 construct: Made in HEK293 cells; also called mouse TIM-3 extracellular domain protein; not shown: human IgG Fc fragment (hFc) of the pCpC vector
T3 chain: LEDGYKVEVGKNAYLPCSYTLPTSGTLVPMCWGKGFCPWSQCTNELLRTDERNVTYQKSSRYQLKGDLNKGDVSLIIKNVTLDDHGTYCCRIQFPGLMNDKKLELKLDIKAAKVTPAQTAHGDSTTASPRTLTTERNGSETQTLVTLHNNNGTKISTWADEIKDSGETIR
From the text: as §1

[4] = molecular target: T4, TIM-3 protein on human peripheral blood mononuclear lymphocytes (PBMC) (human, UniProt Q8TDQ0 22-301); assay: cell-based or functional assay
T4 sequence: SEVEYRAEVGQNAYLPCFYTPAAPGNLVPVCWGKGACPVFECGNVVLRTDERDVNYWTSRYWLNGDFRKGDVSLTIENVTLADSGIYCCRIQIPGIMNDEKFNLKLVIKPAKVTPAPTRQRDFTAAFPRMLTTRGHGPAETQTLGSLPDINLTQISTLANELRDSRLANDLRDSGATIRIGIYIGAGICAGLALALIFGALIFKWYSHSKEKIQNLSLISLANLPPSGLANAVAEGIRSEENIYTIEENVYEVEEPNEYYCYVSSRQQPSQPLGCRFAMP

[5] = molecular target: T5, human TIM-3 on CHOK1 stable cell line (CHOK1-hTIM-3) (human, UniProt Q8TDQ0 22-301); assay: FACS, CHOK1-hTIM-3 cells, 8 nM antibody
T5 sequence: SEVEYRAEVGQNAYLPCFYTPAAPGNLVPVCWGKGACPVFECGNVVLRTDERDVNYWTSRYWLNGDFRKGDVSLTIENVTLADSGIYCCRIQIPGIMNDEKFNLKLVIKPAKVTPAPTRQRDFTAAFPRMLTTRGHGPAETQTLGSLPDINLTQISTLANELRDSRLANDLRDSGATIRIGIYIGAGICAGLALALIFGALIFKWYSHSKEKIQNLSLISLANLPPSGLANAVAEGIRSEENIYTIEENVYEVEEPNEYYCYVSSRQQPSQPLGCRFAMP

[6] = molecular target: T6, human TIM-3 extracellular domain protein with hFc tag (hTIM-3-hFc) (human, UniProt Q8TDQ0 22-200); assay: ELISA, coated human TIM-3 ECD protein, 0 nM antibody
T6 construct: not shown: human IgG Fc fragment (hFc) of the pCpC vector
T6 sequence: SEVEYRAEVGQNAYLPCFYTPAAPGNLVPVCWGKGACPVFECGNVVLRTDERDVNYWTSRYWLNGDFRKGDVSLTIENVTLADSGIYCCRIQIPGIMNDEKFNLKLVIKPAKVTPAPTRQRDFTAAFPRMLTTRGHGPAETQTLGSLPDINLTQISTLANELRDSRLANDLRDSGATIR

[7] = molecular target: T7, murine TIM-3 extracellular domain protein with hFc tag (mTIM-3-hFc) (mouse, UniProt Q8VIM0 29-191); assay: ELISA, coated mouse TIM-3 ECD protein, 0.6667 nM antibody
T7 construct: also called mouse TIM-3 extracellular domain protein; not shown: human IgG Fc fragment (hFc) of the pCpC vector
T7 chain: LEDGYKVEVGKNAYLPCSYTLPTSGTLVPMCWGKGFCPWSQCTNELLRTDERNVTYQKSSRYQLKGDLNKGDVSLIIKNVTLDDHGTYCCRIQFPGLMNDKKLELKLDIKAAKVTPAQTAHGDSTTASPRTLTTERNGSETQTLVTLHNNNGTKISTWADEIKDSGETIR

[8] = molecular target: T8, monkey TIM-3 extracellular domain protein with hFc tag (cTIM-3-hFc) (monkey); assay: ELISA, coated monkey TIM-3 ECD protein, 0.0001 nM antibody
T8 construct: not shown: human IgG Fc fragment (hFc) of the pCpC vector
T8 chain: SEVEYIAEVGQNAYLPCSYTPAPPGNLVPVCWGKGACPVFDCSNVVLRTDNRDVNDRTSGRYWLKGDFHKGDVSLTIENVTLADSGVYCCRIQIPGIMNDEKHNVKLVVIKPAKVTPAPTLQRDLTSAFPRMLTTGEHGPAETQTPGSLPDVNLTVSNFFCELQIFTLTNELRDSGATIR

[9] = molecular target: T8, monkey TIM-3 extracellular domain …; assay: ELISA, coated monkey TIM-3 ECD protein, 0.0667 nM antibody

B1: 134H3G6 (TIM-3 antibody purified from hybridoma, chimeric antibody of Example 2) (antibody, V domains shown)
VH: EVQLVESGGGLVQPGGSLRLSCAASGFTFSNSWMTWVRQAPGKGLEWVANIKQAGTEKYYVDSVKGRFTISRDNAKNSLYLQMNSLRAEDTAVYYCNSGSNYFDYWGQGTLVTVSS
VL: EIVMTQSPATLSVSPGERATLSCRARQNFYSNLAWYQQKPGQAPRLLIYGASTRATGIPARFSGSGSGTEFTLTISSLQSEDFAVYYCQQYNNWPLTFGGGTKVEIK
notes: From hybridoma of Harbour H2L2 transgenic mice: human variable regions, rat constant regions
Work on B1 yielded an OD450 [1] of 2.57, an OD450 [2] of 0.54 and an OD450 [3] of 0.67.

B2: 134H3G6 fully human TIM-3 antibody (human IgG4, kappa) (antibody, V domains shown)
VH: EVQLVESGGGLVQPGGSLRLSCAASGFTFSNSWMTWVRQAPGKGLEWVANIKQAGTEKYYVDSVKGRFTISRDNAKNSLYLQMNSLRAEDTAVYYCNSGSNYFDYWGQGTLVTVSS
VL: EIVMTQSPATLSVSPGERATLSCRARQNFYSNLAWYQQKPGQAPRLLIYGASTRATGIPARFSGSGSGTEFTLTISSLQSEDFAVYYCQQYNNWPLTFGGGTKVEIK
B2 was tested, and the “IFN-γ production (donor X); antibody 0.1 µg/ml, N = 1” value [4] was 2610 pg/mL, the “IFN-γ production (donor X); antibody 0.1 µg/ml, N = 2” value [4] was 2720 pg/mL and the “IFN-γ production (donor X); antibody 1 µg/ml, N = 1” value [4] was 3250 pg/mL. For the same binder, the “IFN-γ production (donor X); antibody 1 µg/ml, N = 2” value [4] was 2890 pg/mL, the “IFN-γ production (donor X); antibody 10 µg/ml, N = 1” value [4] was 3460 pg/mL and the “IFN-γ production (donor X); antibody 10 µg/ml, N = 2” value [4] was 3480 pg/mL. For the same binder, the “IFN-γ production (donor X); antibody '0' (4th head as printed), N = 1” value [4] was 2390 pg/mL, the “IFN-γ production (donor X); antibody '0' (4th head as printed), N = 2” value [4] was 2430 pg/mL and the “IFN-γ production (donor X); antibody '0' (5th head as printed), N = 1” value [4] was 2510 pg/mL. For the same binder, the “IFN-γ production (donor X); antibody '0' (5th head as printed), N = 2” value [4] was 2370 pg/mL, the Mean fluorescence intensity [5] was 229 and the OD450 [6] was 0.08. The OD450 [7] was 0.23, the OD450 [8] was 0.14 and the OD450 [9] was 1.3.

B3: 57F4E5 (TIM-3 antibody purified from hybridoma, chimeric antibody of Example 2) (antibody, V domains shown)
VH: EVQLVESGGGLVQPGGSLRLSCAASGFTFSSYWMSWVRQAPGKGLEWVANIKQDGSEKYYVDSVKGRFTISRDSAKNSLYLQMNSLRAEDTAMYFCARDSNFFDYWGQGTLVTVSS
VL: ETVMTQSPATLSVSPGERATLSCRASQSVSSNLAWYQRKPGQAPRLLIYFSSTRATGIPARFSGSGSGTEFTLTISSLQSEDFAVYYCQQYNNWPLTFGGGTKVEIK
notes: as for B1
B3 was tested, and the OD450 [1] was 3.29, the OD450 [2] was 0.58 and the OD450 [3] was 0.69.

B4: 39E5H1 (TIM-3 antibody purified from hybridoma, chimeric antibody of Example 2) (antibody, V domains shown)
VH: EVQLVESGGGLVQPGGSLRLSCAASGFTFSSYWMSWVRQAPGKGLEWVANIKRGGSERYYVDSVKGRFTISGDNAKNSVYLQMNSLRAEDTAVYYCARGSNWFDPWGQGTLVTVSS
VL: ETVMTQSPAILSVSPGERATLSCRASQSVYSNLAWYQQKLGQAPRLLIYDASTRATGIPARFSGSGSGTEFTLTISSLQSEDFAVYYCQQYNNWPITFGQGTRLEIK
notes: as for B1
Work on B4 yielded an OD450 [1] of 3.34, an OD450 [2] of 0.57 and an OD450 [3] of 0.68.

B5: 34B6D8 (TIM-3 antibody purified from hybridoma, chimeric antibody of Example 2) (antibody, V domains shown)
VH: EVQLVESGGGLVQPGGSLRLSCAASGFTFSTYWMTWVRQAPGKRLEWVANIKQGGGDKYYVDSVKGRFTISTDNAKNSLYLQMNSLRAEDTAVYYCARGSNWFDPWGQGTLVTVSS
VL: EIVMTQSPATLSMSPGERATLSCRASQSVYDNLAWYQQKPGQAPRLLIYGASTRATGIPARFSGSGSGTEFTLTISSLQSEDFALYYCQQYTHWPITFGQGTRLEIK
notes: as for B1
B5 was tested, and the OD450 [1] was 3.4, the OD450 [2] was 0.57 and the OD450 [3] was 0.74.
